Source: the supplement of paper PMC6757056
± gives the standard deviation of the averaged measurements.

B1: library; a variant is named by its letters at N, in order (parent)
chain: GCUGUCACCGAGAAACUGUGAAGUAUAUCUUAAACCUGGGCACUUAAAAGAUAUAUGGAGUUAGUAGUGCAACCUGCUCGGUCUGAUGAGUCCNNNNNNGGACGAAACAGC

Columns and labels:
cyclic di-GMP [1] = variants of: B1; assay: normalized RNA/DNA level without ligand (relative to sTRSVctl = 100) (log10 (% of sTRSVctl)); HEK293T; ligand: cyclic di-GMP (c-di-GMP-II aptamer); higher = less ribozyme self-cleavage, higher mRNA level; conditions: reporter: mCherry (pCS4076), ligand present: no
How it was run: (§1)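 Ribozyme switch library plasmids with mCherry reporters (eGFP in certain ligand experiments) went into HEK293T cells at 4 µg per 6-well well. Where ligand was used, it was applied 1 h before transfection, and total RNA was extracted with EDTA 72 h later for reverse transcription, amplification, barcoding and sequencing. RNA level is the RNA-to-DNA read ratio normalized to a spiked-in non-cleaving sequence or to the leading sequences, then scaled and log-transformed. Scaling was ×100 with log10, the leading set comprised 25 sequences, and the cutoff was ≥100 DNA reads.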

cyclic di-GMP [2] = variants of: B1; assay: normalized RNA/DNA level with ligand (relative to sTRSVctl = 100) (log10 (% of sTRSVctl)); HEK293T; ligand: cyclic di-GMP (c-di-GMP-II aptamer); ligand concentration (+) RNA-Seq: 1 mM; higher = less ribozyme self-cleavage, higher mRNA level; conditions: reporter: mCherry (pCS4076), ligand present: yes
How it was run: as §1

Row | Variant | normalized RNA/DNA level without ligand (log10) (cyclic di-GMP [1]) | normalized RNA/DNA level with ligand (log10) (cyclic di-GMP [2])
1 | GCUGUCACCGAGAAACUGUGAAGUAUAUCUUAAACCUGGGCACUUAAAAGAUAUAUGGAGUUAGUAGUGCAACCUGCUCGGUCUGAUGAGUCCGCGGUAGGACGAAACAGC [GCGGUA] | 1.55 ± 0.046 | 1.69 ± 0.09
2 | GCUGUCACCGAGAAACUGUGAAGUAUAUCUUAAACCUGGGCACUUAAAAGAUAUAUGGAGUUAGUAGUGCAACCUGCUCGGUCUGAUGAGUCCGCGGUCGGACGAAACAGC [GCGGUC] | 1.29 ± 0.072 | 1.52 ± 0.09
3 | GCUGUCACCGAGAAACUGUGAAGUAUAUCUUAAACCUGGGCACUUAAAAGAUAUAUGGAGUUAGUAGUGCAACCUGCUCGGUCUGAUGAGUCCACGGUCGGACGAAACAGC [ACGGUC] | 1.637 ± 0.014 | 1.77 ± 0.17
4 | GCUGUCACCGAGAAACUGUGAAGUAUAUCUUAAACCUGGGCACUUAAAAGAUAUAUGGAGUUAGUAGUGCAACCUGCUCGGUCUGAUGAGUCCGCGGCGGGACGAAACAGC [GCGGCG] | 1.842 ± 0.0045 | 1.9 ± 0.057
5 | GCUGUCACCGAGAAACUGUGAAGUAUAUCUUAAACCUGGGCACUUAAAAGAUAUAUGGAGUUAGUAGUGCAACCUGCUCGGUCUGAUGAGUCCGCGGCUGGACGAAACAGC [GCGGCU] | 1.75 ± 0.024 | 1.91 ± 0.14
6 | GCUGUCACCGAGAAACUGUGAAGUAUAUCUUAAACCUGGGCACUUAAAAGAUAUAUGGAGUUAGUAGUGCAACCUGCUCGGUCUGAUGAGUCCCCGGCGGGACGAAACAGC [CCGGCG] | 1.69 ± 0.023 | 1.77 ± 0.05
7 | GCUGUCACCGAGAAACUGUGAAGUAUAUCUUAAACCUGGGCACUUAAAAGAUAUAUGGAGUUAGUAGUGCAACCUGCUCGGUCUGAUGAGUCCACGGCUGGACGAAACAGC [ACGGCU] | 1.56 ± 0.018 | 1.75 ± 0.12
8 | GCUGUCACCGAGAAACUGUGAAGUAUAUCUUAAACCUGGGCACUUAAAAGAUAUAUGGAGUUAGUAGUGCAACCUGCUCGGUCUGAUGAGUCCACGGCCGGACGAAACAGC [ACGGCC] | 1.78 ± 0.063 | 1.87 ± 0.13
9 | GCUGUCACCGAGAAACUGUGAAGUAUAUCUUAAACCUGGGCACUUAAAAGAUAUAUGGAGUUAGUAGUGCAACCUGCUCGGUCUGAUGAGUCCACGGCGGGACGAAACAGC [ACGGCG] | 1.75 ± 0.067 | 1.86 ± 0.1
10 | GCUGUCACCGAGAAACUGUGAAGUAUAUCUUAAACCUGGGCACUUAAAAGAUAUAUGGAGUUAGUAGUGCAACCUGCUCGGUCUGAUGAGUCCCCGGGUGGACGAAACAGC [CCGGGU] | 1.69 ± 0.066 | 1.81 ± 0.15
11 | GCUGUCACCGAGAAACUGUGAAGUAUAUCUUAAACCUGGGCACUUAAAAGAUAUAUGGAGUUAGUAGUGCAACCUGCUCGGUCUGAUGAGUCCCCGGGAGGACGAAACAGC [CCGGGA] | 1.51 ± 0.068 | 1.69 ± 0.089
12 | GCUGUCACCGAGAAACUGUGAAGUAUAUCUUAAACCUGGGCACUUAAAAGAUAUAUGGAGUUAGUAGUGCAACCUGCUCGGUCUGAUGAGUCCCCGGGCGGACGAAACAGC [CCGGGC] | 1.821 ± 0.013 | 1.93 ± 0.12
13 | GCUGUCACCGAGAAACUGUGAAGUAUAUCUUAAACCUGGGCACUUAAAAGAUAUAUGGAGUUAGUAGUGCAACCUGCUCGGUCUGAUGAGUCCACGGGGGGACGAAACAGC [ACGGGG] | 1.693 ± 0.015 | 1.82 ± 0.1
14 | GCUGUCACCGAGAAACUGUGAAGUAUAUCUUAAACCUGGGCACUUAAAAGAUAUAUGGAGUUAGUAGUGCAACCUGCUCGGUCUGAUGAGUCCACGGGCGGACGAAACAGC [ACGGGC] | 1.7 ± 0.073 | 1.88 ± 0.1
15 | GCUGUCACCGAGAAACUGUGAAGUAUAUCUUAAACCUGGGCACUUAAAAGAUAUAUGGAGUUAGUAGUGCAACCUGCUCGGUCUGAUGAGUCCACGGGUGGACGAAACAGC [ACGGGU] | 1.42 ± 0.083 | 1.58 ± 0.092
16 | GCUGUCACCGAGAAACUGUGAAGUAUAUCUUAAACCUGGGCACUUAAAAGAUAUAUGGAGUUAGUAGUGCAACCUGCUCGGUCUGAUGAGUCCGCGGGUGGACGAAACAGC [GCGGGU] | 1.769 ± 0.0058 | 1.87 ± 0.12
17 | GCUGUCACCGAGAAACUGUGAAGUAUAUCUUAAACCUGGGCACUUAAAAGAUAUAUGGAGUUAGUAGUGCAACCUGCUCGGUCUGAUGAGUCCGCGGGCGGACGAAACAGC [GCGGGC] | 1.53 ± 0.028 | 1.69 ± 0.064
18 | GCUGUCACCGAGAAACUGUGAAGUAUAUCUUAAACCUGGGCACUUAAAAGAUAUAUGGAGUUAGUAGUGCAACCUGCUCGGUCUGAUGAGUCCGCGGGAGGACGAAACAGC [GCGGGA] | 1.62 ± 0.078 | 1.72 ± 0.068
19 | GCUGUCACCGAGAAACUGUGAAGUAUAUCUUAAACCUGGGCACUUAAAAGAUAUAUGGAGUUAGUAGUGCAACCUGCUCGGUCUGAUGAGUCCGCGGGGGGACGAAACAGC [GCGGGG] | 1.74 ± 0.035 | 1.83 ± 0.12
20 | GCUGUCACCGAGAAACUGUGAAGUAUAUCUUAAACCUGGGCACUUAAAAGAUAUAUGGAGUUAGUAGUGCAACCUGCUCGGUCUGAUGAGUCCCCGGUCGGACGAAACAGC [CCGGUC] | 1.622 ± 0.0071 | 1.83 ± 0.073
21 | GCUGUCACCGAGAAACUGUGAAGUAUAUCUUAAACCUGGGCACUUAAAAGAUAUAUGGAGUUAGUAGUGCAACCUGCUCGGUCUGAUGAGUCCUCGGGCGGACGAAACAGC [UCGGGC] | 1.83 ± 0.035 | 1.94 ± 0.086
22 | GCUGUCACCGAGAAACUGUGAAGUAUAUCUUAAACCUGGGCACUUAAAAGAUAUAUGGAGUUAGUAGUGCAACCUGCUCGGUCUGAUGAGUCCUCGGGUGGACGAAACAGC [UCGGGU] | 1.64 ± 0.09 | 1.79 ± 0.13
23 | GCUGUCACCGAGAAACUGUGAAGUAUAUCUUAAACCUGGGCACUUAAAAGAUAUAUGGAGUUAGUAGUGCAACCUGCUCGGUCUGAUGAGUCCUCGGGGGGACGAAACAGC [UCGGGG] | 1.69 ± 0.06 | 1.83 ± 0.11
24 | GCUGUCACCGAGAAACUGUGAAGUAUAUCUUAAACCUGGGCACUUAAAAGAUAUAUGGAGUUAGUAGUGCAACCUGCUCGGUCUGAUGAGUCCUCGGGAGGACGAAACAGC [UCGGGA] | 1.46 ± 0.035 | 1.72 ± 0.11
25 | GCUGUCACCGAGAAACUGUGAAGUAUAUCUUAAACCUGGGCACUUAAAAGAUAUAUGGAGUUAGUAGUGCAACCUGCUCGGUCUGAUGAGUCCUCGGCCGGACGAAACAGC [UCGGCC] | 1.85 ± 0.024 | 1.95 ± 0.054
26 | GCUGUCACCGAGAAACUGUGAAGUAUAUCUUAAACCUGGGCACUUAAAAGAUAUAUGGAGUUAGUAGUGCAACCUGCUCGGUCUGAUGAGUCCUCGGCGGGACGAAACAGC [UCGGCG] | 1.87 ± 0.015 | 1.96 ± 0.084
